# In publication PMC6680207, “ZmpTAC12 binds single‐stranded nucleic acids and is essential for accumulation of the plastid‐encoded polymerase complex in maize”:
# T1: rMBP-pTAC12 (ZmpTAC12) (Zea mays, UniProt B4FZ81 72-555)
# T1 sequence: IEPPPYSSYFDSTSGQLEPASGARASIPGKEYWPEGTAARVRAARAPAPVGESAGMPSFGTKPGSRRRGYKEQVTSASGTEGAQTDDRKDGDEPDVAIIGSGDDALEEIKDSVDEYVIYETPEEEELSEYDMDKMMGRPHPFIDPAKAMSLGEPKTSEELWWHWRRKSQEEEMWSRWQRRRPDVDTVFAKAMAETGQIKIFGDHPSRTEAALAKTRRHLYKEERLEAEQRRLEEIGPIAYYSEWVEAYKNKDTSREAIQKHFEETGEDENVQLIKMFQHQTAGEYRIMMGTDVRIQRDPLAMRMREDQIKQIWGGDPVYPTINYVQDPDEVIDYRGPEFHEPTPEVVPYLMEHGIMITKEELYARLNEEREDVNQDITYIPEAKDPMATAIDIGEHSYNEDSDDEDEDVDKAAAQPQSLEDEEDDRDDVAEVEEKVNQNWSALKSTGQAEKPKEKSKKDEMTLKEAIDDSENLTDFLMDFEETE
# Experiments:
# [1] = target: T1, rMBP-pTAC12 (ZmpTAC12); experiment: EMSA; c. 100 pM probe; EMSA; 1 ug/ul heparin (ssRNA assays), c. 100 pM radiolabeled 50mer; buffer, salt, pH and temperature not in the material; details: protein: recombinant; tags: N-terminal MBP fusion; label: 5' end radiolabel (T4 PNK)
# [2] = target: T1, rMBP-pTAC12 (ZmpTAC12); experiment: EMSA; 100 pM dsDNA; EMSA; 1 ug/ul heparin (ssRNA assays), c. 100 pM radiolabeled 50mer; buffer, salt, pH and temperature not in the material; details: protein: recombinant; tags: N-terminal MBP fusion; label: 5' end radiolabel (T4 PNK); blunt
# [3] = target: T1, rMBP-pTAC12 (ZmpTAC12); experiment: EMSA; 1 ug/ul heparin; c. 100 pM probe; EMSA; 1 ug/ul heparin (ssRNA assays), c. 100 pM radiolabeled 50mer; buffer, salt, pH and temperature not in the material; details: protein: recombinant; tags: N-terminal MBP fusion; label: radiolabeled
binder,measurement,setting,value
TAATTGCTCCAGTGAATAACTAAAAAAAAAAATAGAAGGACGGTAGATAG (ssDNA) [psaAB-150 ssDNA],binding result,[1],binds
psaAB-150 dsDNA (dsDNA) DNA 1: TAATTGCTCCAGTGAATAACTAAAAAAAAAAATAGAAGGACGGTAGATAG DNA 2: CTATCTACCGTCCTTCTATTTTTTTTTTTAGTTATTCACTGGAGCAATTA,binding result,[2],no binding
psaAB-150 ssRNA (ssRNA) RNA: GGUAAUUGCUCCAGUGAAUAACUAAAAAAAAAAAUAGAAGGACGGUAGAUAG,binding result,[3],binds
